Measurements as given in patent US11906524B2, “Urea biosensors and uses thereof” (Duke University, priority 2015, dated 2024).
Where a chain is given by its changes, count along the chain named. Names may count otherwise. Like-named read-outs stand apart in the source and are kept apart here. Marks after values point to notes of the source that are not given here.

B1: ctUBP6 S97C: ctUBP6 97C cysteine mutant (SEQ ID NO: 51), tested as Acrylodan and Badan conjugates (conjugate)
chain: MVEEPVDNKPGTDTSAEDTIKVGILHSLSGTMAISEVSLKDAELMAIEEINQAGGLLGKKIEPVIEDGASDWPTFAEKAKKLLQNDKVATVFGCWTCASRKAVLPVFEENNGLLWYPVQYEGMESSPNIFYTGAAPNQQIVPAVEWLLENKGKRFFLLGSDYVFPRTANKIIKAQLSAIGGELIAEEYTPLGHTDYSTIVNKIKTAKPDVVFNTLNGDSNVAFFKQLKDAGITSEDITVCSVSVAEEEIRGIGAENIKGHLVSWNYYQTTDTPENKEFVEKYKSKYGSDRVTDDPIEAAYIAVHLWAEAVKKAGSFEVEKVKEAAKGLEFKAPEGLVKIEGENQHLWKPVRIGEVQEDGLIKEIWSTSEAVRPDPYLKTYDWAKGLSDGGSHHHHHH
modifications: Acrylodan or Badan conjugate; ctUBP6_97C (97C substitution mutant with signal peptide replaced with M and a GGSHHHHHH at C-terminus)
B2: ctUBP6 A98C: ctUBP6 98C cysteine mutant (SEQ ID NO: 52), tested as Acrylodan and Badan conjugates (conjugate)
chain: B1 chain with C97S, A98C
modifications: Acrylodan or Badan conjugate; ctUBP6_98C (98C substitution mutant with signal peptide replaced with M and a GGSHHHHHH at C-terminus)
B3: ctUBP6 W95C: ctUBP6 95C cysteine mutant (SEQ ID NO: 49), tested as Acrylodan and Badan conjugates (conjugate)
chain: B1 chain with W95C, C97S
modifications: Acrylodan or Badan conjugate; ctUBP6_95C (95C substitution mutant with signal peptide replaced with M and a GGSHHHHHH at C-terminus)
B4: gkUBP10: urea-binding protein from Geobacillus kaustophilus with FATT domain, SEQ ID NO: 20 (protein)
chain: MAEESDNVDSADAEEDDSDVWWGGADTDYADGSEDKVVEVAEEEEVAEVEEEEADDDEDDEDGDEVEEEAEEPYEEATERTTSIATTTTTTTESVEEVLEVLFQGPASSAVDQAKNENKKDSSSASKEGDTVKVGILHSLSGTMAISEVSLRDAELMAIEEINASGGLLGKKIEPVVEDGASDWPTFAEKAKKLLQKDQVAAIFGGWTSASRKAMLPVVEQNNGLLWYPVQYEGMESSPNIFYTGATTNQQIVPAVSWLLKNRGKTFFLLGSDYVFPRTANKIIKAQLKAEGGQVVGEEYTPLGHTDYSTIISKIKQVKPAVVFNTLNGDSNVAFFKQLKDAGITPKDVTVMSVSIAEEEIRGIGPDVLAGHLAVWNYFQTTDTPENKAFVQKYKEKYGQDRVTDDPIEAAYTAVHLWAEAVKKAGSFDVDQVKKAAAGLEYKAPEGTVKIDGETQHLWKTVRIGEIQADGQFKELWNSGQPVKPDPYLKSYPWAKGLSEGGSHHHHHHHH
modifications: gkUBP10 (with signal peptide replaced with M, which is followed by a FATT domain, followed by a sequence fragment for C3 protease, and with a GGSHHHHHH at C-terminus)
B5: bsUBP3: urea-binding protein from Bacillus sp., SEQ ID NO: 14 (protein)
chain: MKVGILHSLSGTMAISEVSVHDAELIAIQEINQKGGVLGKKLEPVVEDGASDWPTYAEKMRKLLQQDKVAAVFGGWTSASRKAMLPVVEQNNGLLFYPVQYEGMETSPNIFYTGATTNQQIVPAVDWLLKNKGKKFFLIGSDYVFPRTANKIIKAQVKAGGGEIAGEEYTPLGHTNYSTLVSKIKEKQPDVIFNTLNGDSNVAFFKQLKDAGISADDMPVMSASVAEEEIRGIGPDVLKGHYAVWNYFQTTNTSENQTFVKNYKKMNGDSRVTSDPIEAGYNAVYLWAAAVEKAKSFDVDKVKKAADGISFKAPGGTVKIDGDTQHLYKTVRIGQITGDGQFKEVWNSGEPVKPDPYLKTYDWAKGLSKGGSHHHHHH
modifications: bsUBP3 (with signal peptide replaced with M and a GGSHHHHHH at C-terminus)
B6: mhUBP2: urea-binding protein from Marinobacter hydrocarbanoclasticus, SEQ ID NO: 13 (protein)
chain: MKVGILHSLSGTMAISETALKDTMLMLIEKQNEAGGVLGRQLEPVVVDPASNWPLFAEKARELLEKEKVDVIFGNWTSVSRKSVLPVVEELNGLLFYPVQYEGEESSENVFYTGAAPNQQAIPAVDYLMNDLGVERWVLAGTDYVYPRTTNKILETYLKDKGVAAGDIMINYTPFGHSDWQTIVSDIKKFGSAGKKTAVVSTINGDANVPFYRELGNQGISATDIPVVAFSVGEQELSGIDTAPLVGHLAAWNYFMSVDNDANYDFIDAWVAYKGDDAAVTNDPMEAHYIGFNMYVEAVKKAGTTDVDEVKDAIIGVSVPNLTGGYATMMPNHHITKPVLIGEIQDNGQFSVVWETPSTVAGDAWSDFLPGSKDLISDWRAPLRAGNFNVVTGKAGGGSADVASNGGSHHHHHH
modifications: mhUBP2 (with signal peptide replaced with M and a GGSHHHHHH at C-terminus, and also comprising C385A and C395A mutations)
B7: teUBP12: urea-binding protein from Thermosynechococcus elongatus with FATT domain, SEQ ID NO: 22 (protein)
chain: MAEESDNVDSADAEEDDSDVWWGGADTDYADGSEDKVVEVAEEEEVAEVEEEEADDDEDDEDGDEVEEEAEEPYEEATERTTSIATTTTTTTESVEEVLEVLFQGPGGDTIKVGILHSLSGTMAISEKSVVDATQLAIEQINQAGGVLGKQIQPILEDGASDWPTFAEKATKLIDQDKVVAVFGAWTSASRKAVLPVFESKNHMLWYPVQYEGQEASKNIFYTGAAPNQQIEPAVDWLLQNKGKKFFLVGSDYVFPRTANTIIKAQLAAKGGETVGEDYLPLGNTEVTPIITRIRNALPDGGVIFNTLNGDSNVAFFKQLQGAGLTPDKYPTMSVSIAEEEVQAIGVEYLKGHYAAWNYFMTVDTPENKSFVEAFKAKFGQNRVTNDPMEAAYIAVHLWKQAVEQAGTADDLEKVRQAAIGQTFNAPEGPVKMFANHHISKTVRIGEVGEDGLFKIVYSTPQPVDPLPWNQFVAETKGFAADWTRTDVDNPGKFKAAGAGGSHHHHHH
modifications: teUBP12 (with signal peptide replaced with M, which is followed by a FATT domain, followed by a sequence fragment for C3 protease, and with a GGSHHHHHH at C-terminus, as well as C185A, C216A, and C481A mutations)
B8: psUBP11: urea-binding protein from Paenibacillus sp. with FATT domain, SEQ ID NO: 21 (protein)
chain: MAEESDNVDSADAEEDDSDVWWGGADTDYADGSEDKVVEVAEEEEVAEVEEEEADDDEDDEDGDEVEEEAEEPYEEATERTTSIATTTTTTTESVEEVLEVLFQGPKETAPTAGAGNGSPPVEAAGDSIKVGILHSLSGTMAISEVSVKDAEMLAIEEINAAGGVLGKQIEPVIEDGASDWPTFAEKAGKLLQQDKVAAVFGGWTSASRKAMLPVFEQNHGLLFYPVQYEGLESSPNIFYTGATTNQQIVPSVSWLLENRGKKMFLLGSDYVFPRTANKIIKAQLTAEGGELAGEEYTPLGHTDFSTIIAKIKEAKPDIVYNTLNGDSNVAFFKQLKDAGTTSKDMTTLSVSVAEEEIRGIGADILEGHLAAWNYYQSTDTPENKAFVDKYKAKYGADRVTADPIEAGYTAVYLWKAAVEKAGTTDVDKVKEAAKGIEFAAPEGKVTIDGDNQHIHKTVRIGEVQADGQFKELWNSGEPVKPDPYLKTYDWAKGLSGEGGSHHHHHH
modifications: psUBP11 (with signal peptide replaced with M, which is followed by a FATT domain, followed by a sequence fragment for C3 protease, and with a GGSHHHHHH at C-terminus)

Columns and labels:
[1] = Urea titration of emission intensity spectra (Nanodrop3300) with ratiometric analysis, singly labeled conjugates; type: binding; set-up: key: m, monochromatic; d, dichromatic (i.e. spectral shape changes); 0, no change; conditions: urea response
Text: (§1) Determination of emission intensity spectra.
(§2) Ratiometric analysis of urea binding. […] 2
(§3) For a single urea-binding site, the fractional saturation is given by
(§4) [formula] where [L] is the ligand (urea) concentration and Kd the dissociation constant, ^trueKd for ytrue.
(§5) [formula] where ^appIλ2 and ^satIλ2 are the emission intensities of the monochromatic signal at wavelength λ2 of the ligand-free and ligand-bound protein, respectively.

[2] = Temperature- and urea-dependent fluorescence landscapes of fluorescent conjugates (Roche LightCycler); type: binding; set-up: key: y, yes; n, no; conditions: Acrylodan conjugate; fluorescent response to urea
Method in brief: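 Acrylodan or Badan was attached to single-cysteine csUBP7 mutants and fluorescence was recorded over 0–4.8 M urea in 20 mM KCl, 20 mM MOPS (pH 7.4), with temperature stepped by 1K. Urea Kd came from ratiometric single-site fits, and Kd values across temperatures were fit to the Gibbs-Helmholtz equation.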

[3] = Urea titration of emission intensity spectra (Nanodrop3300) with ratiometric analysis, singly labeled conjugates; type: binding
Text: as §1, §2, §3, §4, §5

[4] = Thermal stability of purified UBP candidates (SYPRO Orange thermal melt, Roche LightCycler); type: physicochemical; conditions: apo-protein; SYPRO Orange monitors unfolded protein
Procedure: The urea-binding properties of these leads were determined experimentally (Table 4). These experiments comprise four successive steps: • 1. Synthetic gene construction. […] Heterologous protein expression of the homologues in E. coli. […] Verification of urea binding.
Analysis of urea-binding properties using thermal melts.

[5] = ctUBP6 Acrylodan conjugate, urea, nb = no binding

Molecule	Shape ([1]; ctUBP6 Acrylodan conjugate)	Response [2]	Thermostability ^apoTm [4]	also measured
B1	m	n		Kd ([3]; ctUBP6 Acrylodan conjugate, urea, nb = no binding, read-out: ^appKd): 79 mM; Kd ([3]; ctUBP6 Acrylodan conjugate, urea, nb = no binding, read-out: ^trueKd): 84 mM; Shape ([3]; ctUBP6 Badan conjugate, urea response): m/d; Kd ([3]; ctUBP6 Badan conjugate, urea, ^d = noisy data and or bad fit, read-out: ^appKd): 69 mM; Kd ([3]; ctUBP6 Badan conjugate, urea, ^d = noisy data and or bad fit, read-out: ^trueKd): 95 mM
B2	m	y		Shape ([1]; ctUBP6 Badan conjugate): m; ^appKd [3, 5]: nb; ^trueKd [3, 5]: nb
B3	m	y		Shape ([1]; ctUBP6 Badan conjugate): m
B4			>100 °C	
B5			51 °C	
B6			<25^e ° C.	
B7			84 °C	
B8			80 °C	
